From patent US20240218054A1 (MABLOC, published 2024)
Residue numbers refer to the chain shown, from its start.

B1: ADI-42223 (antibody, V domains shown)
VH: EVQLVESGGGLVQPGGSLRLSCAASGFTFSDYYMDWVRQAPGKGLEWVGGIRNKPNSYTTEYAASVKGRFTISRDDSKNSLFLQMNSLKTEDTAVYYCVRLYGDYVAYFDYWGQGTLVTVSS
VL: DIQLTQSPSSLSASVGDRVTITCRASQSISQYLNWYQQKPGKAPKLLISPASSFQSGVPSRFSGSGSGTDFTLTITSLQPEDFATYYCQQSYSTPWTFGQGTKVDIK
notes: full-length IgG; also called Antibody Number 84
B2: ADI-42193 (antibody, V domains shown)
VH: EVQLLESGGGLVQPGGSLRLSCAASGFIFSDHYMAWVRQAPGKGLEWVGRSRNRPNSYTTEYAASAKGRFTISRDDSKTSLYLQMNSLKTEDTAVYYCAREHGDYGLDYWGQGTLVTVSS
VL: QPVLIQPPSASGTPGQRVTISCSGSSSNFGSNFVYWYQQLPGTAPKLLIYRVNQRPSGVPDRFSGSKSGTSASLAISGLRSEDEADYYCATWDVSLSNDVLFGGGTKLTVL
notes: full-length IgG; also called Antibody Number 95
B3: ADI-46742 (antibody, V domains shown)
VH: QVQLQESGPGLVKPSETLSLTCTVSGASIRSYLWSWIRQPPGKELEWLGSIYHSGSTKYNPSLKSRVTISADTSKNQFSLKLNSVTAADTAVFYCARETANNWFDPWGQGTLVTVSS
VL: SYELTQPPSVSVAPGQTARIICGGNYIGGKSVHWYQQKPGQAPVLVVYNDNDRPSGIPERFSGSNSGNTATLTISRVAAGDEADYYCQVWDNSSDRRVFGGGTKLTVL
notes: full-length IgG; also called Antibody Number 86
B4: ADI-42212 (antibody, V domains shown)
VH: EVQLVESGGGLVQPGGSLRLSCAASGFTFSDHYMDWVRQAPGKGLEWVGRSRNKPNSYITEYAASVKGRFTISRDDSKNSLYLQMNSLKTEDTAVYYCSRHMGFGLDLWGQGTLVTVSS
VL: SYELTQPPSVSVSPGQTATITCSGDKLGYTYTCWYQQKPGQSPVLVIYQDTKRPSGIPERFSGSNSGNTATLTITGTQAMDEADYYCQAWDTTTAGGVFGGGTKLTVL
notes: full-length IgG; also called Antibody Number 99
B5: ADI-48435 (antibody, V domains shown)
VH: QVQLVQSGAEVKKPGASVKVSCKASGYTFTSYGISWVRQAPGQGLEWMGWISAYNGNTNYAQKLQGRVTMTTDTSTSTAYMELRSLRSDDTAVYYCARRGTTVTRFGVIQYYYGMDVWGQGTTVTVSS
VL: QSVLTQPASVSGSPGQSITISCTGTSSDVGGYNYVSWYQQHPGKAPKLMIYDVSNRPSGVSNRFSGSKSGNTASLTISGLQAEDEADYYCSSYTSSSTLVFGGGTQLTVL
notes: full-length IgG; also called Antibody Number 85
B6: ADI-42213 (antibody, V domains shown)
VH: EVQLLESGGGLVQPGGSLRLSCAASGFTFTYYAMSWVRQAPGKGLEWVSGISGSGDSTYNADSVKGRVTISRDNSKNTLYLQMNSLRAEDTAVYYCAKDGGYSTDWYFDLWGRGTLVTVSS
VL: EIVLTQSPGTLSLSPGERATLSCRASQSVSSSFLAWYQQKPGQAPRLLIYGASSRATGIPDRFSGSGSGTDFTLTIRRLEPEDFAVYYCQQYGSSRRTFGQGTKVEIK
notes: full-length IgG; also called Antibody Number 90
B7: ADI-48968 (antibody, V domains shown)
VH: EVQLLESGGGLGQPGGSLRLSCVASKFTFSDHYMDWVRQAPGKGLEWVGRIRNKPNGYTTEYAASVKGRFIISRDDSKNSLYLQMKSLKIEDTAIYYCVRVWGGEAARYDYWGQGALVTVSS
VL: DIRLTQSPSSLSASVGDRVTITCRASQDIRKFLNWYQQKLGKAPSLLIYGASSLQSGVPSRFSGSGSGTDFTLTISSLQPEDFAIYYCQHASTTPWTFGQGTKVEIK
notes: full-length IgG; also called Antibody Number 98
B8: ADI-49044 (antibody, V domains shown)
VH: QVQLVESGGGVVQPGRSLRLSCAASGFAFSSYGMHWVRQAPGKGLEWVAGMRFDGTKIYYADSVKGRFTISRDNSKNTLYLQMNSLRAEDTAVYFCARDLEVGAEYIYYYYGMDVWGQGTTVTVSS
VL: QPVLTQPPSASGTPGQRVTISCSGSSSNIGTNTVSWYQQLPGTAPQLLVFSRTQRPSGVPDRFSGSKSGTSASLAISGLQSDDEADYYCAAWDDSRNGWVFGGGTKLTVL
notes: full-length IgG; also called Antibody Number 8
B9: ADI-49162 (antibody, V domains shown)
VH: EVQLVESGGTFLQPGGSLRLSCVASGFTFGTHAMSWVRQAPGKGLEWVSTFSGSGGRTYYADSVKGRFTISRDNSKSTLYLEMSALRAEDTAVYYCAKFYDSSGYYYFDYWGQGTLVTVSS
VL: DIQLTQSPSTLSASVGDRVTVTCRASQNVGGWLAWYQQKPGKAPKLLIFQASRLENGVPSRFSANASGTEFTLTIGSLQPDDFATYYCQQYNTYPYTFGQGTKVDIK
notes: full-length IgG; also called Antibody Number 83
B10: ADI-45078 (antibody, V domains shown)
VH: EVQLVESGGGLIQPGGSLRLSCAASGFSFSSHAMTWVRQAPGKGLQWVSSIRGSDRTTNYADSVKGRFTVSRDNSKNTLYLQMNSLRAEDTAIYYCAKYYDSSGYYYFDHWGQGTLVTVSS
VL: DIRMTQSPSTLSASIGDRVTITCRASQSISDWLAWYLQKPGKAPSLLIYRASSLETGVPSRFSGRGSGTEFTLTISSLQPDDFGTYYCQQYNRDPYTFGQGTKVDIK
notes: full-length IgG; also called Antibody Number 82
B11: ADI-42787 (antibody, V domains shown)
VH: EVQLVESGGGVVQSGRSLRLSCAASGFTFSGNAMHWVRQAPGKGLEWVAVILYDGSNQYYADSVKGRFTISRDNSKNTLYLQMNSLRPADTAVYYCARASMMPRPPVHDYWGQGTLVTVSS
VL: DIRVTQSPATLSVSPGERATLSCRASQRVNSNLAWYQQKPGQAPRLLIYGASTRATGIPVRFSGSGSGTEFTLTISSLQSEDFAVYYCQQYNTWWTFGQGTKVEIK
notes: full-length IgG; also called Antibody Number 87
B12: ADI-45161 (antibody, V domains shown)
VH: QVQLQESGGGVVQPGRSLRLSCAASGFTFSSYGMHWVRQAPGKGLEWVAVIWYDGSNKYYADSVKGRFTISRDNSKNTLYLQMNSLRAEDTAVYYCARDVGYQLLQVYGMDVWGQGTTVTVSS
VL: QSALTQPASVSGSPGQSITISCTGTSSDVGGYNYVSWYQQHPGKAPKLMIYEVSNRPSGVSNRFSGSKSGNTASLTISGLQAEDEADYYCSSYTSSSTLDVVFGGGTKLTVL
notes: full-length IgG; also called Antibody Number 92
B13: ADI-45136 (antibody, V domains shown)
VH: EVQLVESGGGVVRPGRSLRLSCAASGFTFSSYGMHWVRQAPGKGLEWVAVIRFDGSNTVYADSVKGRFTISRDNSKNTLYLQMNSLRAEDTAVYYCAKTYDSNAYYYLDYWGQGTLVTVSS
VL: DIVMTQTPSTLSASVGDRVTVTCRASQSISDWLAWYQQKAGKAPKLLIYRASSLESGVPPRFSGSGSGTEFTLTISSLRPDDFATYYCQQYNRYPYTFGQGTKVDIK
notes: full-length IgG; also called Antibody Number 80
B14: ADI-42844 (antibody, V domains shown)
VH: QVQLVESGGGVVQPGRSLRLSCTASGFTFSSYGMHWVRQAPGKGPEWVAVISYDGSKKYFADSVKGRFTISRDNSKNTLYLQMNSLRAEDTAVYSCAKGYDSNGYYYIDYWGQGTPVTVSS
VL: B13 VL with V3R, M4V, T7S, V21I, D31S, A40P, P60S, R79Q, D105E
notes: full-length IgG; also called Antibody Number 91
B15: ADI-48910 (antibody, V domains shown)
VH: EVQLVQSGGGLVQRGGSLRLSCAASGFTFSSYAMTWVRQAPGKGLEWVSDMNHSGDRTNYADSVRGRFTISRDNSKNTLYLQMNSLRAEDTAVYYCAKYYDSSGYYYFHSWGQGTLVTVSS
VL: B10 VL with M4L, I15V, T20S, L37Q, S45K, S53G, R65S, G84A, D94Y
notes: full-length IgG; also called Antibody Number 94
B16: ADI-45128 (antibody, V domains shown)
VH: QVQLQESGPGLVRPSQTLSLTCTVSGGAISSGDYYWSWVRQPPGKGLEWIGYIHYSGTTYNNPSLKSRVTIAVDTSKNQFSLKLSSVTAADTAVYFCGRDSDKNYFDYWGQGTLVTVSS
VL: QSVLTQPPSVSAAPGQKVTISCSGSSSNIGNNDVSWYQQLPGRAPKLLIYDNNKRPSGIPDRFSGSKSGTSATLGITGLQTGDEADYYCGAWDSSLSAHVVFGGGTKVTVL
notes: full-length IgG; also called Antibody Number 79
B17: ADI-49590 (antibody, V domains shown)
VH: QVQLVQSGAEVKKPGASVKVSCKASGYTFTGYYMHWVRQAPGQGLEWMGRINPNSGGTNYAQKFQGRVTMTRDTSISTAYMELSRLRSDDTAVYYCYVDYYYDSSGYYSPFDYWGQGTLVTVSS
VL: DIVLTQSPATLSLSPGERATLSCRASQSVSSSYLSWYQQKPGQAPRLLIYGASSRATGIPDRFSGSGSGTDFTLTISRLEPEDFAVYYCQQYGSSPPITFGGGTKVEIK
notes: full-length IgG; also called Antibody Number 96
B18: ADI-45083 (antibody, V domains shown)
VH: QVQLVESGPGLVKPSGTLSLTCAVSGGSISSDYWWSWVRQPPGKGLEYIGEIYHTGSTNYNPSLKSRVTVSLDRSKNVFSLTLRSVTAADTAVYYCARSHWRSPQSVTFDLWGQGTTVTVSS
VL: QPVLTQPPSVSAAPGQKVTISCSGSNSNIGNYYVSWYQQFPGTAPKLLIYDNNKRPSGIPDRFSGSKSGTSATLAITGLQTGDEAHYYCGTWDTSSLSAGRVFGGGTKLTVL
notes: full-length IgG; also called Antibody Number 9
B19: ADI-42192 (antibody, V domains shown)
VH: EVQLLESGPGLVKPSQTLSLTCSVSGGSISSGGYYWTWIRQPPGKGLEWIGYIYYTGSTYYNPSLKSRVTISVDTSKNQFSLKLSSVTAADTAVYFCARAEYDTSGYYQQRLPEYFQHWGQGTLVTVSS
VL: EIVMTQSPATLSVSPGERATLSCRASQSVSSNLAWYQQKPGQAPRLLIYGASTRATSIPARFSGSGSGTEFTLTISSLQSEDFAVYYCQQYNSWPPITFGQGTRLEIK
notes: full-length IgG; also called Antibody Number 93
B20: ADI-45076 (antibody, V domains shown)
VH: EVQLVESGGGFVQPGGSLRLSCAASGFIFSDYYMDWVRQAPGKGLEWVGRIRNKPNSYTTEYAASVKGRFSISRDDLKNSLYLQMNSLKTEDTAEYYCARVDGEEVALIYWGQGALVTVSS
VL: DIQMTQSPSSLSASVGDRVTITCRASQTITRYMNWYQQKPGEAPKLLIYATSSLQSGVPSRFSGSGSGTDFTLTITNLQPADFATYYCQQSSTTRWTFGQGTKVDIK
notes: full-length IgG; also called Antibody Number 97
B21: ADI-49141 (antibody, V domains shown)
VH: EVQLQESGPGLVKPSGTLSLTCAVSGGSISSSNWWTWVRQPPGKGLEWIGEIYHSGSTNYNPSLESRVTMSVDKSKNQFSLKLSSVTAADTAVYYCARVQTSHSELWFGEFGADWGQGTLVTVSS
VL: DIVMTQSPATLSVSPGERATLSCRASQSVSSNLAWYQQKPGQAPRLLIYGASTRATGIPARFSGSGSGTEFTLTISSLQSEDFAVYSCQQYNTWPKTFGQGTKVEIK
notes: full-length IgG; also called Antibody Number 89
B22: ADI-42189 (antibody, V domains shown)
VH: EVQLVESGGGVVQPGWSLRLSCAVSGFTFSSYAMHWVRQAPGKGLEWVAVISYDGSYKWYADSVKGRFTISRDNSKNTVYLQMNSLRAEDTAVYYCASLWFIVMTMSKNPETDYWGQGTLVTVSS
VL: DIQVTQSPSSLSASVGDRVTITCRASQGIRNDLAWYQQRPGKAPKRLIYAASSLQSGVPSRFSGSGSGTEFTLTISSLQPEDFATYYCLQHHSYPWTFGQGTKVEIK
notes: full-length IgG; also called Antibody Number 81

Target: T1, recombinant YFV E protein (soluble E, sE; YFV Asibi strain) (Yellow fever virus, Asibi strain, UniProt Q6DV88 286-678)
T1 construct: also called YFV E antigen; YFV E monomer
Assay: BLI monovalent (IgG on tip)

T1 sequence (Q6DV88 286-678): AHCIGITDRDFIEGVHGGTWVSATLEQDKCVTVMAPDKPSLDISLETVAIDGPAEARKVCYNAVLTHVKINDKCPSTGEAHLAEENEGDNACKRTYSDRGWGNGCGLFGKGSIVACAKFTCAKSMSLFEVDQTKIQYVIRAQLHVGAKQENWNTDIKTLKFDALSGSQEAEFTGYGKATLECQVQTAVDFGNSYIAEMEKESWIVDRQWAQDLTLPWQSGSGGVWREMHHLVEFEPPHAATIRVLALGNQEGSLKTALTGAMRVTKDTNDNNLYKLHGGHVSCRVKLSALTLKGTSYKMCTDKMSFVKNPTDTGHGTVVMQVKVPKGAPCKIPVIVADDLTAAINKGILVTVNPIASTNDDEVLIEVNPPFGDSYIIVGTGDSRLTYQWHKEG

Binder | Kd
B1 | 1.04 nM
B2 | 0.922 nM
B3 | > 100 nM
B4 | 0.884 nM
B5 | > 100 nM
B6 | 15.2 nM
B7 | 0.963 nM
B8 | 1.88 nM
B9 | 2.19 nM
B10 | 5.88 nM
B11 | 0.45 nM
B12 | > 100 nM
B13 | 16.8 nM
B14 | 137 nM
B15 | 2.42 nM
B16 | 3.54 nM
B17 | 109 nM
B18 | 3.45 nM
B19 | 204 nM
B20 | 0.882 nM
B21 | 187 nM
B22 | 2.4 nM
